Reference: article PMC2605612

Molecular target: T1, Myc-hFis1[1-152] (human), Q9Y3D6
T1 chain: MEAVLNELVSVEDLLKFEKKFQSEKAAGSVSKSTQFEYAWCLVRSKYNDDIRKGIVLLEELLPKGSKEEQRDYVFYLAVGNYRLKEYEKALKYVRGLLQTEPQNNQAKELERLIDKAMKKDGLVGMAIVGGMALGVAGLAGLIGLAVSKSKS
Test: cross-linking
Details: remark: other sources report otherwise

B1: Myc-hFis1[1-152], Q9Y3D6 1-152 (natural protein)
chain: T1 chain
stoichiometry N: 2
